The values below come from patent publication US20200147235A1 (AbbVie / Abbott, published 2020).

Assay [1] concerns the target T1, Human CD98 expressed on stably transfected CHO-K1 cells (human).
T1 construct: also called huCD98; CD98 heavy chain
T1 chain: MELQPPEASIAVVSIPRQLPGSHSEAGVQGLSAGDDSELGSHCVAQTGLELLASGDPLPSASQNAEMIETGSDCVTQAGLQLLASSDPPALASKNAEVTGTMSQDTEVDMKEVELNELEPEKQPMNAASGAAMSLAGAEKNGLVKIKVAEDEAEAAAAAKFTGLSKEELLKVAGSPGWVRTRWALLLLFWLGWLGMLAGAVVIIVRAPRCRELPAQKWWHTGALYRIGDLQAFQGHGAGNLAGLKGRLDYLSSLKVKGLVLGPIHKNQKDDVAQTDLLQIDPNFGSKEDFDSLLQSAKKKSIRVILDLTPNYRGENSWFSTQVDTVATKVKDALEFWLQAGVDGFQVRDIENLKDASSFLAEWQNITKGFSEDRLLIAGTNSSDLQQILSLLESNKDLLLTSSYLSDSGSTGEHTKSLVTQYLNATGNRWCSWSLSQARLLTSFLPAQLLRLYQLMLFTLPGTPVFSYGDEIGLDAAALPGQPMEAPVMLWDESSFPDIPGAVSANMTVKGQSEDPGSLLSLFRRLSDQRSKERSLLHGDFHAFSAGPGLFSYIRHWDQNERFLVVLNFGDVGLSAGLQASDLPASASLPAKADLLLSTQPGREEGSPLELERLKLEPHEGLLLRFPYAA
Description: flow cytometry, CHO-K1 cells expressing human CD98. As for the experimental part:
(§1) Briefly, binding kinetics of anti-CD98 chimera mAbs for human and cynomolgus CD98 ECDs were determined by surface plasmon resonance-based measurements as described in Example 4. Table 10 reported the association and dissociation rate constants for CD98 binding, kₐ (M⁻¹s⁻¹) and kd (s⁻¹), and the equilibrium dissociation constant KD (M) of the interaction between antibodies and the target antigen. Binding of anti-CD98 chimera mAbs for CD98 on cell surface was evaluated by flow cytometry against CHO-K1 cell line stably transfected to express human CD98 and 3T12 cell line stably transfected to express cynomolgus monkey CD98.
(In general: A flow cytometer gives signals particle by particle.)

For assay [2], the target named is T2, Human CD98 ECD with C-terminal His-tag (human, UniProt P08195 105-529).
T2 construct: also called huCD98 ECD; recombinant human CD98 extracellular domain
T2 sequence: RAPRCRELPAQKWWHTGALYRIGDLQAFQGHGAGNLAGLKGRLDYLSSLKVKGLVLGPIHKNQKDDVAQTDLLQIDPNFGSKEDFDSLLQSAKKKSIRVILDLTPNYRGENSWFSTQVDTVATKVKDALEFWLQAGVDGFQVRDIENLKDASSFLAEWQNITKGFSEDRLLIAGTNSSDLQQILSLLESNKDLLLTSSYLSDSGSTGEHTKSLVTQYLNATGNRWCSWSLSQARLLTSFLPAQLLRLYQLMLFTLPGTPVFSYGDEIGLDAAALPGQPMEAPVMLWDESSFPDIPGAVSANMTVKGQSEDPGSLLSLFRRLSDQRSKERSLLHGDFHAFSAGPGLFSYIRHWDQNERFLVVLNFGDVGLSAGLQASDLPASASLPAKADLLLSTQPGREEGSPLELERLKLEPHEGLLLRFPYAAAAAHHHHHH
Nature of the assay: SPR Biacore, anti-Fc capture of mAb, CD98 ECD analyte. As for the experimental part:
(§2) The binding kinetics of these purified mouse and rat monoclonal anti-CD98 antibodies for purified recombinant CD98 protein (extracellular domain. ECD) were determined by surface plasmon resonance-based measurements made on Biacore T100/T200 instruments (GE Healthcare, Piscataway, N.J.) at 25° C. using an anti-Fc capture assay approach. Binding kinetic measurements were made in the assay buffer HBS-EP+: 10 mM Hepes, pH 7.4, 150 mM NaCl, 3 mM EDTA, 0.05% Tween 20). For example, approximately 8000 RU of anti-Fc (species specific) polyclonal antibody (Thermo Fisher Scientific Inc. Rockford, Ill.) diluted in 10 mM sodium acetate (pH 4.5) was directly immobilized across a CM5 research grade biosensor chip using a standard amine coupling kit according to manufacturer's instructions and procedures at 25 μg/ml. Unreacted moieties on the biosensor surface were blocked with ethanolamine. The test antibody to be captured as a ligand was diluted in running buffer to ˜0.5 μg/mL and injected over anti-Fc surface at a flow rate of 10 μL/min, CD98 binding and dissociation were observed under a continuous flow rate of 80 μL/min. Human and cynomolgus monkey CD98 ECDs, both with a C-terminal His-tag, are used for this study (Table 3). After each cycle the anti-Fc capture surface was regenerated using 10 mM Glycine-HCl, pH 1.5. During the assay, all measurements were referenced against the capture surface alone (i.e., with no captured test antibody) and buffer-only injections (no antigen) were used for double referencing. For kinetic analysis, rate equations derived from the 1:1 Langmuir binding model were fitted simultaneously, globally and with mass transfer term included to multiple referenced antigen binding curves using Biacore T100T200 Evaluation software.
(§3) Briefly, binding kinetics of anti-CD98 chimera mAbs for human and cynomolgus CD98 ECDs were determined by surface plasmon resonance-based measurements as described in Example 4.
On the technique in general: In SPR one partner is held on a chip, and binding of the other changes the refractive index at the surface.

The target of assay [3] is T3, Cynomolgus monkey CD98 ECD with C-terminal His-tag (cynomolgus monkey, UniProt P08195 105-529 (human entry)).
T3 construct: also called cyCD98 ECD; recombinant cynomolgus monkey CD98 extracellular domain
T3 chain: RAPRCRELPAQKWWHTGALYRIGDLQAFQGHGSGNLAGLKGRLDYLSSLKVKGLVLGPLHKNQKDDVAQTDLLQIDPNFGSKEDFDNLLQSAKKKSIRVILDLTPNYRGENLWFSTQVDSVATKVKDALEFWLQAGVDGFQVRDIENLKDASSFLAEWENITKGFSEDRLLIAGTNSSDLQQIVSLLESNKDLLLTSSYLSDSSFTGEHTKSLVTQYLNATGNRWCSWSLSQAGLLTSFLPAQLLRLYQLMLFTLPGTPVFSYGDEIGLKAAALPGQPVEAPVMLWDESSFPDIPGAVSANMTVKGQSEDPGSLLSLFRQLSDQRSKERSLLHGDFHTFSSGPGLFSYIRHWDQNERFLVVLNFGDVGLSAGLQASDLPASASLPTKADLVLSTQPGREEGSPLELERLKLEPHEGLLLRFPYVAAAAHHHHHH
The description is as above. As for the experimental part: as §2, §3

Assay [4] deals with T4, Cynomolgus monkey CD98 expressed on stably transfected 3T12 cells (cynomolgus monkey).
T4 construct: whole, on cells; also called cyCD98
Description: flow cytometry, 3T12 cells expressing cynomolgus CD98. Here is the method:
as §1

B1: Recombinant anti-CD98 chimeric antibody chAb9 (antibody, human IgG1, V domains shown)
VH: QVQLKESGPGLVQPSQTLSLTCAVSGFSLSNYGVIWVRQPPGKGLEWMAVIWTNGNTNYNSTLKSRLSISRDTSKSQVYLKMNSLQTEDTATYYCARHYYDGTYYYGYFDYWGQGVMVTVSS
VL: DIVMTQTPSSQAVSAGEKVTMSCKSSQSLLYTENKKNYLAWYQQKPGQSPKLLIYWASTRESGVPDRFMGSGSGTDFTLTISSVQAEDLAVYYCQQYYYFPYMFGAGTKLELK
As a reminder, the EC50 is the concentration at which the effect is half-maximal. The term Kd denotes the equilibrium constant for the complex coming apart. The koff is a measure of how fast the partners let go of each other. One may read the kon as the rate constant with which the complex forms. In the case of B1, the half-maximal effective concentration (EC50) in assay [1] came out at 8.55 nM; in assay [4] it was 11.1 nM. In addition, the Kd worked out at 3.3 nM in assay [2] and 19 nM in assay [3]. The dissociation rate constant (koff) in assay [2] stood at 0.00024 s⁻¹; in assay [3], 0.00063 s⁻¹. In addition, the kon was determined as 73000 M⁻¹ s⁻¹ in assay [2] and 33000 M⁻¹ s⁻¹ in assay [3].

B2: Recombinant anti-CD98 chimeric antibody chAb7 (antibody, human IgG1, V domains shown)
VH: QVQLKESGPGLVQPSQTLSLTCTVSGFSLSTYGVIWVRQPPGKGLEWMGVIWANGNTNYNSTLKSRLSISRDTSKSQVYLKMNSLQTEDTATYYCARHYYDGTYYYGYFDYWGQGVMVTVSS
VL: DIVMTQTPSSQAVSAGEKVTMNCKSSQSLLYSENKKNYLAWYQQKPGQSPKLLIYWASTRESGVPDRFIGSGSGTDFTLTISSVQAEDLAVYYCQQYYYFPYTFGPGTKLELK
Turning to B2, the concentration giving a half-maximal response (EC50) in assay [1] worked out at 2.56 nM; in assay [4], 6.49 nM. Besides, the Kd in assay [2] was 0.45 nM; in assay [3], 3.5 nM. Moreover, the koff stood at 6.2e-05 s⁻¹ in assay [2] and 0.00022 s⁻¹ in assay [3]. Also, the kon in assay [2] was found to be 140000 M⁻¹ s⁻¹; in assay [3], 63000 M⁻¹ s⁻¹.

B3: Recombinant anti-CD98 chimeric antibody chAb13 (antibody, human IgG1, V domains shown)
VH: QVQLKESGPGLVQPSQTLSLTCTVSGFSLSSYGVIWVRQPPGKGLEWMGIIWANGNTNYNSALKSRLSISRDTSKSQVYLKMNSLQTEDTATYYCARHYYDGTHYYGYFDYWGQGVMVTVSS
VL: DTVMTQTPSSQAVSAGEKVTMSCKSSQSLLYSENKKKYLAWYQQKPGQSPKLLIYWASTRESGVPDRFIGSGSGTDFTLTISSVQAEDLAVYYCQQYYNFPYTFGAGTKLELK
notes: also called chAbl 3
Consider B3, for which the concentration giving a half-maximal response (EC50) in assay [1] amounted to 3.24 nM. Further, in assay [2], the dissociation constant Kd came out at 1.2 nM, the off-rate (koff) worked out at 0.00016 s⁻¹ and the kon is 130000 M⁻¹ s⁻¹. In assay [3], this molecule registered a dissociation constant (Kd) of 7.1 nM, an off-rate constant (koff) of 0.00044 s⁻¹ and an on-rate (kon) of 62000 M⁻¹ s⁻¹. The molecule further returned an EC50 in assay [4] of 2.98 nM.

B4: Recombinant anti-CD98 chimeric antibody chAb8 (antibody, human IgG1, V domains shown)
VH: EVQLVESGGGLVQPGRSLKLSCAASGFTFSDYAMAWVRQAPKKGLEWVASIIYDGRGTYYRDSVKGRFTISRDNAKSTLYLQMDSLRSEDTATYYCARQGDGTYYYWGYFDYWGQGVMVTVSS
VL: DIVMTQSPSSLAVSAGETVTINCKSSQSLLSSGNQKNYLAWYQQKPGQSPKLLIYWASTRQSGVPDRFIGSGSGTDFTLTINSVQAEDLAIYYCQQYYDTPYTFGAGTKLELK
Take B4: the concentration giving a half-maximal response (EC50) in assay [1] is 2.61 nM. In assay [2], this molecule gave a dissociation constant Kd of 4.2 nM, a dissociation rate constant (koff) of 0.00028 s⁻¹ and an on-rate constant (kon) of 67000 M⁻¹ s⁻¹. In assay [3], the affinity, expressed as Kd, was 17 nM; the dissociation rate constant (koff) worked out at 0.0005 s⁻¹; the kon is 28000 M⁻¹ s⁻¹. The same molecule yielded a half-maximal effective concentration (EC50) in assay [4] of 10.1 nM.

B5: Recombinant anti-CD98 chimeric antibody chAb15 (antibody, human IgG1, V domains shown)
VH: EVQLVESGGGLVQPGRSLKLSCAASGFTFSDYTMAWVRQAPKKGLEWVATIIYDGRGTYYRDSVKGRFTISRDNAKSTLYLQMDSLRSEDTATYYCARQSDGTYYYWGYFDYWGQGVMVTVSS
VL: DIVMTQSPSSLAVSAGETVTINCKSSQSLLFSGNQKNYLAWYQQKPGQSPKLLIYWASTRQSGVPDRFIGSGSGTDFTLTIRSVQAEDLAIYYCQQYYDSPYTFGAGTKLELK
On to B5, for which the concentration for a half-maximal effect (EC50) in assay [1] came to 6.63 nM. In assay [2], this molecule gave a dissociation constant Kd of 1.1 nM, a koff of 4.6e-05 s⁻¹ and an association rate constant (kon) of 43000 M⁻¹ s⁻¹. In assay [3], this molecule registered a dissociation constant (Kd) of 3.7 nM, a koff of 7.4e-05 s⁻¹ and an association rate constant (kon) of 20000 M⁻¹ s⁻¹. In assay [4], this molecule showed an EC50 of 20.3 nM.

B6: Recombinant anti-CD98 chimeric antibody chAb12 (antibody, human IgG1, V domains shown)
VH: EVQLVESGGGLVQPGRSLKLSCAASGFTFSDYAMAWVRQAPKKGLEWVASIIYDGRGTYYRDSVKGRFTISRDNAKSTLYLQMDSLRSEDTATYYCARQGDGTYYYWGSFDYWGQGVMVTVSS
VL: DIVMTQSPSSLAVSAGETVTINCKSSQSLLSSGNQKNYLAWYQQKPGQSPKLLIYWASTRQSGVPDRFIGSGSGTDFTLTISSVQAEDLAIYHCQQYYDTPYTFGAGTKLELK
In turn, B6 registered a concentration for a half-maximal effect (EC50) in assay [1] of 2.89 nM. Moreover, in assay [2], the Kd came to 1.2 nM, the koff was 6.3e-05 s⁻¹ and the kon is 54000 M⁻¹ s⁻¹. In assay [3], the Kd was 3.8 nM, the koff stood at 9.3e-05 s⁻¹ and the kon stood at 24000 M⁻¹ s⁻¹. Also, the response in assay [4] was half-maximal at 14.9 nM (EC50).

B7: Recombinant anti-CD98 chimeric antibody chAb10 (antibody, human IgG1, V domains shown)
VH: EVQLVESGGGLVQPGRSLKLSCAASGFTFSDYAMAWVRQAPKKSLEWVATIIYDGRGTYCRDSVKGRFTISRDNAKSTLYLQMDSLRSEDTATYYCARQGDGTYHYWGYFDYWGQGVMVTVSS
VL: DIVMTQSPSSLAVSAGETVTINCKSSQSLLSSGNQKNYLAWYQQKPGQSPKLLIYWASTRQSGVPDRFIGSGSGTDFTLTISSVQAEDLAIYYCQQYYDTPYTFGAGTKVDLK
In assay [1], B7 had an EC50 of 6.45 nM. In assay [2], binding was characterised by a dissociation constant (Kd) of 3.3 nM, the koff amounted to 0.00033 s⁻¹ and the kon is 100000 M⁻¹ s⁻¹. In assay [3], this molecule yielded a Kd of 11 nM, a koff of 0.00064 s⁻¹ and a kon of 59000 M⁻¹ s⁻¹. This molecule came in with a 50% effective concentration (EC50) in assay [4] of 10.8 nM.
